Experimental data reported in IntAct's records for PubMed 21134644.

B1: Integrin beta-3 (Homo sapiens), P05106 (parent)
chain: MRARPRPRPLWATVLALGALAGVGVGGPNICTTRGVSSCQQCLAVSPMCAWCSDEALPLGSPRCDLKENLLKDNCAPESIEFPVSEARVLEDRPLSDKGSGDSSQVTQVSPQRIALRLRPDDSKNFSIQVRQVEDYPVDIYYLMDLSYSMKDDLWSIQNLGTKLATQMRKLTSNLRIGFGAFVDKPVSPYMYISPPEALENPCYDMKTTCLPMFGYKHVLTLTDQVTRFNEEVKKQSVSRNRDAPEGGFDAIMQATVCDEKIGWRNDASHLLVFTTDAKTHIALDGRLAGIVQPNDGQCHVGSDNHYSASTTMDYPSLGLMTEKLSQKNINLIFAVTENVVNLYQNYSELIPGTTVGVLSMDSSNVLQLIVDAYGKIRSKVELEVRDLPEELSLSFNATCLNNEVIPGLKSCMGLKIGDTVSFSIEAKVRGCPQEKEKSFTIKPVGFKDSLIVQVTFDCDCACQAQAEPNSHRCNNGNGTFECGVCRCGPGWLGSQCECSEEDYRPSQQDECSPREGQPVCSQRGECLCGQCVCHSSDFGKITGKYCECDDFSCVRYKGEMCSGHGQCSCGDCLCDSDWTGYYCNCTTRTDTCMSSNGLLCSGRGKCECGSCVCIQPGSYGDTCEKCPTCPDACTFKKECVECKKFDRGALHDENTCNRYCRDEIESVKELKDTGKDAVNCTYKNEDDCVVRFQYYEDSSGKSILYVVEEPECPKGPDILVVLLSVMGAILLIGLAALLIWKLLITIHDRKEFAKFEEERARAKWDTANNPLYKEATSTFTNITYRGT

Variants of: B1
Details: with tln1_mouse Tln1, P26039
Sequence of tln1_mouse Tln1, P26039 (P26039 whole entry): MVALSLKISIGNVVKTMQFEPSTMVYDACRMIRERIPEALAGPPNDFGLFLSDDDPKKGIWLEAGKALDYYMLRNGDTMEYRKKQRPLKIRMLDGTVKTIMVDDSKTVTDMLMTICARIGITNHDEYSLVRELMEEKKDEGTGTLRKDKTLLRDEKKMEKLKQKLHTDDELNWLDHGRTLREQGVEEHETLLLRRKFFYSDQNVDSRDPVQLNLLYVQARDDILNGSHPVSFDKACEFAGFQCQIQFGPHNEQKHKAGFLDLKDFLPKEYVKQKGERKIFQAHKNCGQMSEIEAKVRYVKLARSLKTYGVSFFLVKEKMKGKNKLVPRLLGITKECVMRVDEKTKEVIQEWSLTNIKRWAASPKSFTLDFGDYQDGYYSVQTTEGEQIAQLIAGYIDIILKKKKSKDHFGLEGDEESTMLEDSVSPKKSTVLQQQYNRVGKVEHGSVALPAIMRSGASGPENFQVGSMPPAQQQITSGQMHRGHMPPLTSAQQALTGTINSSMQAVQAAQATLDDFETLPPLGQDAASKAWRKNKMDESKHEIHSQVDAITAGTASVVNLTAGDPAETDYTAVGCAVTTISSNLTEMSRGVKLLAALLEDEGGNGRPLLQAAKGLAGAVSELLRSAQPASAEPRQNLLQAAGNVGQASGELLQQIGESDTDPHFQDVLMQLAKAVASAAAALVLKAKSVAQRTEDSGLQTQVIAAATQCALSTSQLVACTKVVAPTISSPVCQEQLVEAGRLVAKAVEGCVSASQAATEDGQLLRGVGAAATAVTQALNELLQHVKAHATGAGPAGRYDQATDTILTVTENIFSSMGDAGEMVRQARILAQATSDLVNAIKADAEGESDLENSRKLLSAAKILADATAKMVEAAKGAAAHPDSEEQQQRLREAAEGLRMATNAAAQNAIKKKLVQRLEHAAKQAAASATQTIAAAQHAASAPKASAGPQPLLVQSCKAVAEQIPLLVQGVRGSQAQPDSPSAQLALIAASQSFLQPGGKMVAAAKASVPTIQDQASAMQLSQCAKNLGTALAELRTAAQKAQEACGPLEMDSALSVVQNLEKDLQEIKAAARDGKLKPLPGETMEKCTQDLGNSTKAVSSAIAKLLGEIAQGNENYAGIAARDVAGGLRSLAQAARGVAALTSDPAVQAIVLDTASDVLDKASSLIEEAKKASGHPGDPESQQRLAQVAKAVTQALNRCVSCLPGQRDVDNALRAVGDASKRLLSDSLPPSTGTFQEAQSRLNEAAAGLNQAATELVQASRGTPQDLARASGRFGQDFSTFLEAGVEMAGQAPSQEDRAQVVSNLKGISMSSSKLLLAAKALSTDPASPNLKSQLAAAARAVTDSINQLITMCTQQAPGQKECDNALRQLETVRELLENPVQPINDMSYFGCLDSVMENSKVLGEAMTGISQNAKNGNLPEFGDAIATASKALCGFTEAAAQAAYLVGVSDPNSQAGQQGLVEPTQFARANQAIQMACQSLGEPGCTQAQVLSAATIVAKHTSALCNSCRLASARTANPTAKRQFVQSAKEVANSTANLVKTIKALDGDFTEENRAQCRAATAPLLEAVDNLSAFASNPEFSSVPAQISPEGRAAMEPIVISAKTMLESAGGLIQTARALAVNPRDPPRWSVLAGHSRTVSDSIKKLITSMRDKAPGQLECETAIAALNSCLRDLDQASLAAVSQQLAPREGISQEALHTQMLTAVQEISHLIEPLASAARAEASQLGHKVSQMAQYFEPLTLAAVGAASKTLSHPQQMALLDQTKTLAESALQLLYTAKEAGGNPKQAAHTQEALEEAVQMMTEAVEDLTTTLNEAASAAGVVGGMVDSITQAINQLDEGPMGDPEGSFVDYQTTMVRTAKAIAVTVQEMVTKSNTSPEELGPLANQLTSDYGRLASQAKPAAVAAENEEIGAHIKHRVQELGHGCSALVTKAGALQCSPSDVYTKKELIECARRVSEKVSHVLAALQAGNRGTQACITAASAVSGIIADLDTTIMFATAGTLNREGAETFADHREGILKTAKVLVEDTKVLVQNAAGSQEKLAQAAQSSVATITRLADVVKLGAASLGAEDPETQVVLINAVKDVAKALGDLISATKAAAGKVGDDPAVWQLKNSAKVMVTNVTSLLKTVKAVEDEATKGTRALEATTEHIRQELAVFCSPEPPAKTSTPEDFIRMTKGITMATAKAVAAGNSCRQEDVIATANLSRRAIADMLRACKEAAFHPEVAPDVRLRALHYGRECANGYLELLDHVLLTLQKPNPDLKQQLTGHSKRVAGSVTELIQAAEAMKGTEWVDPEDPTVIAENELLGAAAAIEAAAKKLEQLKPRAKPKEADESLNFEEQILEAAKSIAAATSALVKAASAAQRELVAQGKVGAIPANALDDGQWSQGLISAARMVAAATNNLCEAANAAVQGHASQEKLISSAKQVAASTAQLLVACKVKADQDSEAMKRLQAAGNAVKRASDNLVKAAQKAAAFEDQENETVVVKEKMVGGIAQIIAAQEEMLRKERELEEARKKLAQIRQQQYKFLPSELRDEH

Row | effect of a mutation on the interaction | Variant
1 | decreasing interaction | Y773A
2 | decreasing interaction | F753A;F756A
3 | disrupting interaction | W765A
